Laboratory results taken from publication PMC10715038.
Read-outs that look alike come from different tables or passages of the source.

Columns and labels:
Test in all cases: SPR
[1] = target: Horse ACE2-huFc (soluble horse ACE2 ectodomain, human IgG1 Fc fusion) (horse (Equus caballus)) (UniProt F6V9L3)
[2] = target: Horse ACE2-huFc (soluble horse ACE2 ectodomain, human IgG1 Fc fusion) (horse (Equus caballus)) (UniProt F6V9L3); remark: listed apart in the source
[3] = target: Pangolin ACE2-huFc (soluble pangolin ACE2 ectodomain, human IgG1 Fc fusion) (pangolin (Manis javanica))

Substance: SARS-CoV-2 WHU01 Spike RBD, monomeric (from UniProt P0DTC2) (domain or fragment)
- Kd [1]: 67.4 nM
- Kd [2]: 89.8 nM
- Kd [3]: 67.1 nM
